*1 amine or outer side, *2 acyl side, *3 side chain or, on linkers, in order; H or OH if unused. Where no end group is shown, it is not given here. [ ]: non-standard residue; d: D form. NMeF = CN[C@@H](Cc1ccccc1)C(=O)O; Suc = O=C(CCC(=O)[*:2])[*:1]; NMeV = CN[C@H](C(=O)O)C(C)C
T1: zebrafish Tac3rb (tac3 receptor b, NKB receptor) (zebrafish)
T1 chain: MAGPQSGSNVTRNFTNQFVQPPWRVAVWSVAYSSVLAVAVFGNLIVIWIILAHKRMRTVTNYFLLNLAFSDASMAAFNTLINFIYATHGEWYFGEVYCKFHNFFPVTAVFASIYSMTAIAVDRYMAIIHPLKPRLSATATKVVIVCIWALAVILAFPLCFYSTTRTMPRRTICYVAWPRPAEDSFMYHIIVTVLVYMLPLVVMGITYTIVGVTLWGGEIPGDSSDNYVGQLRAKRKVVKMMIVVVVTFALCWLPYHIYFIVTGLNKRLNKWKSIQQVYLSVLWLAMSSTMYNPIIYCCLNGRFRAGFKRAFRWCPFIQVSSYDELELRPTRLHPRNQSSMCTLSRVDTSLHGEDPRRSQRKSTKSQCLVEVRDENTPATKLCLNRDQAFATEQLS

T2: human NK3R (human NKB receptor) (human, UniProt P29371 1-465)
T2 sequence (looked up): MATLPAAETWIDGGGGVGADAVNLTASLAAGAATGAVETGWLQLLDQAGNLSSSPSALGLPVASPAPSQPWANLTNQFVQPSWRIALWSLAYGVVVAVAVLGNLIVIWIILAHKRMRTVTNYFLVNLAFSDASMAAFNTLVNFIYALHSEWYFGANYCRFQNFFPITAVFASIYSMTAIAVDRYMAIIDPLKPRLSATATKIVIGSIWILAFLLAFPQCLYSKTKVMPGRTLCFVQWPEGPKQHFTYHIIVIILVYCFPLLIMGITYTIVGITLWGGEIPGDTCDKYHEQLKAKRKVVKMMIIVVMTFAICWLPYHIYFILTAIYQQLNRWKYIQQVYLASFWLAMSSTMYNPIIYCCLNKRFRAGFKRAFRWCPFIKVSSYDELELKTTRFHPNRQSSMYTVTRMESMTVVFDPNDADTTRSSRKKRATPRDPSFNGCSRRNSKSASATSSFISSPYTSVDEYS

T3: zebrafish Tac3ra (tac3 receptor a, NKB receptor) (zebrafish)
T3 chain: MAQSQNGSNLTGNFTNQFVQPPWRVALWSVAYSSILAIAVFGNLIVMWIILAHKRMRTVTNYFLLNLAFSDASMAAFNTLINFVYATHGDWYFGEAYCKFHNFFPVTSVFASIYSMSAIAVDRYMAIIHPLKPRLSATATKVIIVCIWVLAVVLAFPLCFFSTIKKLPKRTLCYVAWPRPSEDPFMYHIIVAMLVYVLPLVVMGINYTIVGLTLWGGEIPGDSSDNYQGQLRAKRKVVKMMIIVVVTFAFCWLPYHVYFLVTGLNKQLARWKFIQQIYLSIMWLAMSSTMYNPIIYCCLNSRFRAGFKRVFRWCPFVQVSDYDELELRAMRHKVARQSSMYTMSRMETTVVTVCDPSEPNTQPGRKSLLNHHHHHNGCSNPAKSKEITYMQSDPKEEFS


Legend:
zfTac3ra [1] = assay: Receptor transactivation assay, CRE-Luc reporter (PKA activation), COS-7 cells expressing zfTac3ra; format: cell-based, zebrafish; settings: mean ± SEM
Method: (§1) In order to study the signaling pathways of the novel zebrafish NKBs, the entire coding regions of zftac3ra (denoted by SEQ ID NO:6) or zftac3rb (denoted by SEQ ID NO:7), or the cDNA clone for human NK3R (obtained from the Missouri S&T cDNA Resource Center, were inserted into pcDNA3.1 (Invitrogen). The luciferase assay was conducted according to Biran et al., 2008 [4] COS-7 cells were grown in DMEM supplemented with 10% FBS, 1% glutamine, 100 U/ml penicillin, and […] streptomycin (Biological Industries) under 5% CO2 until confluent. Cotransfection of either pc-zftac3ra, pc-zftac3rb or pc-Htac3r (at 3 μg/plate), a reporter plasmid (at 2 μg/plate), and pCMV-β-galactosidase (at 1 μg/plate) was carried out with FuGENE 6.0 reagent (Roche). The cells were serum starved for 36 h, stimulated with vehicle or various concentrations of either human (Sigma) or zebrafish NKBs for 6 h, and then harvested and analyzed. Lysates prepared from the harvested cells were assayed for both luciferase activity and β-galactosidase activity, which was used as an internal standard to normalize the luciferase activity directed by the test plasmid. Transfection experiments were performed in triplicate with three independently isolated sets. Protein structure prediction of zebrafish NKBa, NKBb or NKF were performed on I-Tasser servers.
(§2) The response, binding selectivity and signal transduction pathways of the novel tachykinin receptors to their agonists were evaluated by functional expression analysis, using COS-7 cells.
(§3) The NKB analogues (i.e. the NKBa-analog, NKBb-analog and NKF-analog, as denoted by SEQ ID NO. 44-46) were first analyzed in comparison to their native forms in a transactivation assay, using reporter genes for specific signal transduction pathways. To validate the specificity of the serum-responsive element (SRE)-Luc and cAMP-responsive element (CRE)-Luc reporter systems, specific activators for PLC/PKC and AC/PKA signaling pathways were used in control experiments.
(§4) Thus, the ability of the three novel piscine peptides (namely, NKBa, NKBb and NKF, denoted by SEQ ID NO.40, 41 and 42), as well as the ability of the three analogous agonistic peptides, namely, NKBa-analog, NKBb-analog and NKF-analog, to differentially activate the different tac3 receptors, using SRE as a reporter gene that follows PKC activation and CRE as a reporter gene for the PKA pathway, was tested. Human NK3R (human NKB receptor) and human NKB served as controls.

zfTac3rb [2] = assay: Receptor transactivation assay, CRE-Luc reporter (PKA activation), COS-7 cells expressing zfTac3rb; format: cell-based, zebrafish; settings: mean ± SEM
Method: as §1, §2, §3, §4

zfTac3ra [3] = assay: Receptor transactivation assay, SRE-Luc reporter (PKC activation), COS-7 cells expressing zfTac3ra; format: cell-based, zebrafish; settings: mean ± SEM
Method: as §1, §2, §3, §4

zfTac3rb [4] = assay: Receptor transactivation assay, SRE-Luc reporter (PKC activation), COS-7 cells expressing zfTac3rb; format: cell-based, zebrafish; settings: mean ± SEM
Method: as §1, §2, §3, §4

[5] = molecular target: T1, zebrafish Tac3rb (tac3 receptor b, NKB …); assay: cell-based or functional assay
[6] = molecular target: T2, human NK3R (human NKB receptor); assay: cell-based or functional assay
[7] = molecular target: T3, zebrafish Tac3ra (tac3 receptor a, NKB …); assay: cell-based or functional assay
[8] = molecular target: T1, zebrafish Tac3rb (tac3 receptor b, NKB …); assay: cell-based or functional assay
[9] = molecular target: T2, human NK3R (human NKB receptor); assay: cell-based or functional assay; remark: listed apart in the source
[10] = molecular target: T3, zebrafish Tac3ra (tac3 receptor a, NKB …); assay: cell-based or functional assay
[11] = molecular target: T1, zebrafish Tac3rb (tac3 receptor b, NKB …); assay: cell-based or functional assay
[12] = molecular target: T2, human NK3R (human NKB receptor); assay: cell-based or functional assay; remark: listed apart in the source
[13] = molecular target: T3, zebrafish Tac3ra (tac3 receptor a, NKB …); assay: cell-based or functional assay

| EC50 (zfTac3ra [1]; Table 5, COS-7 cells, CRE-Luc follows PKA activation, read-out: EC50 CRE-Luc zfTac3ra) | EC50 (zfTac3ra [1]; Table 6 (native peptides and analogues), PKA activation, read-out: EC50 using CRE-Luc, zfTac3ra) | EC50 (zfTac3rb [2]; Table 5, COS-7 cells, CRE-Luc follows PKA activation, read-out: EC50 CRE-Luc zfTac3rb) | EC50 (zfTac3rb [2]; Table 6 (native peptides and analogues), PKA activation, read-out: EC50 using CRE-Luc, zfTac3rb) | EC50 (zfTac3ra [3]; Table 5, COS-7 cells, SRE-Luc follows PKC activation, read-out: EC50 SRE-Luc zfTac3ra) | EC50 (zfTac3ra [3]; Table 7 (native peptides and analogues), PKC activation, read-out: EC50 using SRE, zfTac3ra) | EC50 (zfTac3rb [4]; Table 5, COS-7 cells, SRE-Luc follows PKC activation, read-out: EC50 SRE-Luc zfTac3rb) | EC50 (zfTac3rb [4]; Table 7 (native peptides and analogues), PKC activation, read-out: EC50 using SRE, zfTac3rb) | EC50, CRE-Luc to follow PKA activation, transfected COS-7 cells [5] | EC50, CRE-Luc to follow PKA activation, transfected COS-7 cells [6] | EC50, CRE-Luc to follow PKA activation, transfected COS-7 cells [7] | EC50, SRE reporter gene that follows PKC activation, transfected COS-7 cells [8] | EC50, SRE reporter gene that follows PKC activation, transfected COS-7 cells [9] | EC50, SRE reporter gene that follows PKC activation, transfected COS-7 cells [10] | EC50, CRE-Luc reporter (PKA activation), transfected COS-7 cells [11] | EC50, SRE-Luc reporter (PKC activation), transfected COS-7 cells [11] | EC50, CRE-Luc reporter (PKA activation), transfected COS-7 cells [12] | EC50, SRE-Luc reporter (PKC activation), transfected COS-7 cells [12] | EC50, CRE-Luc reporter (PKA activation), transfected COS-7 cells [13] | EC50, SRE-Luc reporter (PKC activation), transfected COS-7 cells [13] | Molecule |
| --- | --- | --- | --- | --- | --- | --- | --- | --- | --- | --- | --- | --- | --- | --- | --- | --- | --- | --- | --- | --- |
| 12.9 ± 13.3 nM | 12.9 ± 13.3 nM | 8.12 ± 1.56 nM | 8.12 ± 1.56 nM | 2.2 ± 1.49 nM | 2.2 ± 1.49 nM | 0.82 ± 0.16 nM | 0.82 ± 0.16 nM | – | – | – | – | – | – | – | – | – | – | – | – | CSCC[C@H](NC(=O)[C@H](CC(C)C)NC(=O)CNC(=O)[C@@H](NC(=O)[C@H](Cc1ccccc1)NC(=O)[C@H](Cc1ccccc1)NC(=O)[C@H](CC(=O)O)NC(=O)[C@H](Cc1c[nH]cn1)NC(=O)[C@H](CCSC)NC(=O)[C@@H](N)CC(=O)O)C(C)C)C(N)=O [huNKB, reference compound] |
| – | – | – | – | – | – | – | – | 11.9 nM | 16.8 nM | 6.94 nM | 0.29 nM | 3.44 nM | 0.15 nM | – | – | – | – | – | – | Suc-DIF[NMeV]GLM-NH2 (SMILES CC[C@H](C)[C@H](NC(=O)[C@H](CC(=O)O)NC(=O)CCC(=O)O)C(=O)N[C@@H](Cc1ccccc1)C(=O)N(C)[C@H](C(=O)NCC(=O)N[C@@H](CC(C)C)C(=O)N[C@@H](CCSC)C(N)=O)C(C)C) [NKBa-analog (Succ-Asp-Ile-Phe-N(Me)Val-Gly-Leu-Met-NH2)] |
| – | – | – | – | – | – | – | – | 2.18 nM | 2.19 nM | 1.68 nM | 0.23 nM | 0.94 nM | 0.06 nM | – | – | – | – | – | – | Suc-DF[NMeV]GLM-NH2 [NKBb-analog (Succ-Asp-Phe-N(Me)Val-Gly-Leu-Met-NH2)] |
| – | – | – | – | – | – | – | – | 191 nM | 336 nM | 99.6 nM | 15.3 nM | 204 nM | 6.06 nM | 519 nM | 33.8 nM | 605 nM | 204 nM | 237 nM | 8.96 nM | STGINREAHLPFRPNMNDIFVGLL-NH2 [Zebrafish Tac3b peptide, neurokinin Bb (STGINREAHLPFRPNMNDIFVGLL-NH2)] |
| – | – | – | – | – | – | – | – | 7.75 nM | 7.33 nM | 9.14 nM | 0.54 nM | 0.71 nM | 0.31 nM | – | – | – | – | – | – | XDSFXGLM (N-terminal succinyl (Succ) on Asp; N(Me)Val; C-terminal amide (-NH2)) [NKF-analog (Succ-Asp-Ser-Phe-N(Me)Val-Gly-Leu-Met-NH2)] |
| – | – | – | – | – | – | – | – | 20.1 nM | – | 49 nM | 2.72 nM | – | 2.68 nM | 20.1 nM | 2.72 nM | – | – | 49 nM | 2.67 nM | Suc-DF[NMeF]GLM-NH2 [Senktide (Succ-Asp-Phe-N(Me)Phe-Gly-Leu-Met-NH2)] |
| – | – | – | – | – | – | – | – | 16.4 nM | 6.64 nM | 4.75 nM | 26.1 nM | 0.49 nM | 0.62 nM | 4.55 nM | 1.47 nM | 3.73 nM | 0.49 nM | 5.75 nM | 0.5 nM | EMHDIFVGLM-NH2 [Zebrafish Tac3a peptide, neurokinin Ba (EMHDIFVGLM-NH2)] |
| – | – | – | – | – | – | – | – | 8.12 nM | – | 12.9 nM | 0.82 nM | – | 2.2 nM | 8.12 nM | 0.82 nM | – | – | 12.9 nM | 2.2 nM | DMHDFFVGLM-NH2 [human NKB (neurokinin B)] |
